From the nanobody polyreactivity screen of Harvey et al. (2022)

Assay: yeast display, Sf9 membrane polyspecificity reagent, FACS + sequencing; frameworks hold sequencing errors
How it was run: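 Genes from sorted yeast were amplified by colony PCR, read by MiSeq 2 × 250 sequencing and filtered on CDR length. These cells carried a synthetic nanobody library in Saccharomyces cerevisiae BJ5465 and were sorted by FACS into low and high (top ~1%) gates on anti-HA and streptavidin fluorescence. Polyreactivity is labelled according to the gate of origin.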

Row | Sequence | polyreactivity (PSR sort gate)
1 | QVQLVESGGGLVQAGGSLRLSCAASGSTFSQYAMGWYRQAPWKERELVAAITSTGGSTYYADSVKGRFTISRDNAKNTVYLQMNSLKPEDTAVYYCYPYIRDPKYNYWGQATQVTVSS | low polyreactivity
2 | QVQLVESGGGLVQAGGSLRLICAASGTFVTYMGWYRQAPGKERELVAAIRNGGSTNYADSVKGRFTISRDNAKNTVYLQMNSLKPEDTAVYYCAARVTYSRGYRGGSRTKYDYWGQGTQVTVSS | low polyreactivity
3 | QVQLVESGGGLVQAGGSLRLSCAASGRIFPYKDMGWSRQAHGKEMELVAGISYSGGSTYYADSVKGRFTISRDNAKNTVYLQMNSLKPEDTAVYYCARDYSRHKGDYWGQGTQVTVSS | low polyreactivity
4 | QVQLVDSGGGLVQAGGSLRLSCAASGRTFKPYTMGWYRQAPGKERDLVAAISARGVSTYYADSVKGRFTISRDNAKNTGYLQMNSLKPEDTAVYYCNRVYFIGYRVFPPPMDYWGQGTQVTVSS | high polyreactivity
5 | QVQLEESGGGLVQAGGSLRLSCAASGRIFRPYAMGWYRQAPGKERELVAAISFSGGSTYYADSVKGRFTISRDNAKNTVYLQMNSLKPEDTAVYYCNKDLYRYPGYDYWGQGTQVTVSS | high polyreactivity
6 | QVQLVESGGGLVQAGGSLRLSCAASGSTFKRYAMGWYRQAPGKERELVAANSASGGSTSYADSVKGRFTISRDNAKITVYLQMNSLTPEDTAVYYCAPYYWLYSSSYDYWGQGTQVTVSS | high polyreactivity
7 | QVQLVESGGGLVQAGGSLRLSCAASGSTTHYYAMGWYRQAPGKEWELVASITWSVGSTYYADSVKGRFTISRDNAKNTVYLQMNSLKPEVTAVYYCAGRPFPRRYDYWGQGTQVTVSS | low polyreactivity
8 | QVQLVESGGGLVQAGGSLRLSCAASGRIFYLYAMGWYRQAPGKERELVATINTSGGITYYADSVKGRFTISRDNAKNTVYLQMNSLKPEDTAVYYCNADWEWQYFYFRPGGYWGQGTQVTVSS | low polyreactivity
9 | QVQLVESGGGLVQAGGSLRLSCAASGFIFGRYAMGWYRQAPGKERELVAAISKTGGRTYYADSVKGRFTISRDNAKNTVYLQMNSLKPEDTAVYYCAAVYKRGMDYWGQGTEVTVSS | high polyreactivity
10 | QVQLVESGGGLVQAGGSLRLSCAASGSTFVRYDMGWYRQAPGKERELVADISWSGVSTYADSVKGRFTISRDNAKNTVYLQMNSLIAEDTAVYYCAKDSDLYQRGGYYWGQGTQVTVSS | low polyreactivity
11 | QVQLVESGGGLVQAGGTLRLSCAASGLISYFYGMGWYRQAPGKERELVAGIDTGSSTNYADSVKGRFTISRDNAKNTVYLQMNSLKPEDTAVYYCAADSVSKYGSDYWGQGTQVTVSS | low polyreactivity
12 | QVQLVESGGGLVQAGGSLRLSCAASGRTSRVNAMGWYRQAPGKERELVATITKSGGSTFYADSVKGRFTISRDNAKNTVYLQMNILKPEDTAVYYCNAGGVRATKGYDYWGQGTQVTVSS | low polyreactivity
13 | QVQLVESGGGLVQAGGSLRLSCAATGITFVYNAMGWYRQAPGKERELVAAISWSGTSTYYADSVKGRFTISRDNAKNTVYLQMNSLKPEDTAVYDCSAQSGYPPYGYYYWGQGTQVTVSS | low polyreactivity
14 | QVQLVESGGGLVQAGGSLRLSCAASGFTFEKNAMGWDRQAPGKERELGAAISRGGSTYADSVKGRFTISRDNAKNTVHLQINSLKPEDTAVYYCAADTVYIFSSAINGEFGDWGQGTQVTVSS | low polyreactivity
15 | QVQLVESGGGLVQAGGSLRLSCAASGFTIVHYAMGWYRQAPGKERELVAAITWNGGRTYYADSVKGRFTISRDTAKNTVYLQMNSLKPEDTAVYYCAVRYKSWYGFNYWGQGTQVTVSS | high polyreactivity
16 | QVQLVESGGGLVQAGGSLRLSCAASGSTFRNYAMGWYRQAPGKERELVATISASGGSTYYADSVKGRFTISRDNAKNTVYLQMNSLKPEDTAVYYCNAVVKLWGLVIPPGDYDYWGQGTQVTVSS | high polyreactivity
17 | QVQHVESGGGLVQAGGSLRLSCAASGSTFTTNAMGWYRQAPGKERELVAAITASGGRTYYADSVKGRFTISRDNAKNTVYLQMNSLKPEDTAVYYCAADSGNEYDYWGQGTQVTVSS | low polyreactivity
18 | QVQLVESGGGLVQAGGSHRLSCAASGRIFSYNSMGWYRQAPGKERELVAAITSGGSTYYADSVKGRFTISRDNAKNTVYLQMNSLKPEDTAVYYCAVRSYYFVSRYTRTLYGFDYWGQGTQVTVSS | low polyreactivity
19 | QVQLVESGGGLVQAGGSLRLSCAASGRIFIYYAMGWYRQAPGKERELVAAISWSGGRTYYADSVKGRFTISRDNAKNTVYLQMNSLKPEDTAVDYCAGYSFANHGFDYWGQGTQVIVSS | high polyreactivity
20 | QFQLVEAGGGLVQAGGSLRLSCAASGSIIPNYNMGWYRQAPAKETELVAAMSISGGTTYYADSVKGRFTISRDNAKNTVYLQMNSLKPEETAVYYCAAVEYYWFLGYYYRYDYWGQGTQVTVSS | high polyreactivity
21 | QVQLVESGGGLVQAGGSLRLSCAASGSILFTNAMGWYRQAPGKERELVAAISSGGSTYYADSVKGRFTISRDNAKNTVYLQMNSLKPEDTAVYYCAASDHYRWYVHRWEDPFYYWGQGTQVTVSS | low polyreactivity
22 | QVQLVESGGGLVQAGGSLRLSCAASGFILGTNAMGWYRQAPGKERELVAAISYSGGSTNYADSVKGRFTISRDNAKNTVYLQMYSLKPEDTPVYYCNRDPRKYGKLDYWGQGTQVTVSS | low polyreactivity

Row | Sequence | polyreactivity (PSR sort gate)
23 | QVQLVETGGGLVQAGGSLRLSCAASGSTMAYYTMGWYRQEPGKEREFVASINWGGTTTYYADSVKGRFTISRDNAKNTVYLQMNSLKPEDTAVYYCAALGLRWGRSGYYYEYYYWGQGTQVTVSS | high polyreactivity
24 | QVQLVESGGGLVQAGGSLRLSCAASGRTFGYNAMAWYRQAPRKERELVAAISRGGSTNYADSVKGRFTISRDNAKNTVYLQMNSLKPEDTAVYYCAAYDWRVLWGYDYWGQGTQVTVSS | low polyreactivity
25 | QVQLVESGGGLVQAGGSLRLSCAASGRIFVSYVMGWYRPAPGKEREFVAAIRRSGSSTYYADSVKGRFTISRDNAKNTVYLQINRLKPEDTAVYYCAAYQRSRTLRRYDYWGQGTQVTVSS | high polyreactivity
26 | QVQLVESGGGLVQAGGSLRLSCAACGIIFSWYAMGWYRQAPGKERELVAAISSSGGTTFYADSVKGRFTISRDKAKNTVYLQMNSLKPEDTAVYYCAVVGPPYYTWRVWRPAYDYWGQGTQVTVSS | high polyreactivity
27 | QVQLVESGGGLVQAGGSLRLSCAASGFTFWGYGMGWYRQAPGKERELVAAISGSGGSTYYADSVKGRFTISRDNAKNTVYLQMNSLKPEDTAVYYCNKATQFYQWGASPYYPRRDYWGQGTQVTVSS | low polyreactivity
28 | QVQLVESGGGLVQAGGSLRLSCAASGFTFSYNAMGWYRQAPGKERELVAAITYSAGNTYYADSVKGRFTISRDNAKNTVYLQMNSLKPEDTAVYYCNAVTKHRAITNMDYWGQGTQVTVSS | high polyreactivity
29 | QVQLVESGGGLVQAGGSLRLTCAASGIIFRGYVMAWYRQAPGKERELVAAISTSGGRTSYADSVKGRFTISRDNAKNTVYLQMNSLKPEDTAVYYCKTRVTGNRLGYYYWGQGTQVTVSS | high polyreactivity
30 | QVQHVESGRGLVQAGCSLPLSCAASGFTFLAYAMGWYRQAPGKETELVAAISRSGGRTYYADSVKWRFTISRDNAKNTVYLQMNSLKPEDTAVYYCAKRVLTHPGDDYWGQGAQVTVSS | high polyreactivity
31 | QVQLVESGGGLVQAGGSLRLFCAASGRIFSAYAMGLYRQAPGKERELVAGISSRGGSTYYADSVKGRFTISRDNAKNTVYLQMNSLKPEDTAVYYCAKPYGRRYGRLHDYWGQGTQVTVSS | high polyreactivity
32 | QVQLVESGGGLVQAGGSLRLSCAASGRTFSTYAMGWYRQAPGKERELVATIRGSGSSTYYADSVKGRFTISRDNAKNTVYLQMNSLKPEDTAVYYCAKDNNRWRYLRYGSWGQGTQVTVSS | high polyreactivity
33 | QVQLVESGGGLVQAGGSLRLSCAASGSTFFHYVMGWYRQAPWKERELVAAIRWSGGRTRYADSVKGRFTISRDNAKNTVYLQMNSLKPEDTAVYYCAAYRLSKPFYKYDYWGQGTQVTVSS | high polyreactivity
34 | QVQLVESGGGLVQAGGSLRLSCAASGSNFTYYAMGWYRQAPGKERELVAAISYSGGTTYYADSVKGRFTISRDNAKNTVYLQMNSLKPEDTAVYYCNVDADYESQWLSVGYDYWGQGTQVTVSS | low polyreactivity
35 | QVQLVESGGGLVQAAGSLRLSCAASGYIFQYYAMGWYRQAPGKERELVAAITGGGSTKYADSVKGRFTISRDNAKNTVYLQMNSLKPEDTAVYYCAASLWYRISKYDYWGQGTQVTVSS | high polyreactivity
36 | QVQLVESRGGLVQAGCSLRLSCAASGSIFLHKAMGWYRQAPGKERELVAVITSRGGSTYYADSVKGRFTISRDNAKITVYVQMNSLNPEDPAVYYCAAPDYHKRTSRGDYWGQGTQVTVSS | low polyreactivity
37 | QVQLVESGGGLVQAGGSLRLSCAASGFILSDYAMGWYRQAPGKERELVAGINSGGSTYYADSVKGRFTISRDNAKNTVYLQMNSLIPEDTAVYYCAAGVDYWWLVHFLYYYWGQGTQVTVSS | high polyreactivity
38 | QVQLVESGGGLVQAGGSLRLSCAASGSIFAANAMGWYRQAPGKEREFVASISRSGGSTYYADSVKGRFTISRDNAKNTVYLQMTSLKPEDTAVYYCATRTRIYSARDHYGYWGQGTQVTVSS | low polyreactivity
39 | QVQLVESGGGLVHAGGSLRLSCAASGSFFRSYAMGWYRQAPGKEMEWVATISSSTGSTYYADSVKGRFTISRDNAKNTVYLQMNSLKPEDTSVYYCAAVQPVKSCSGYHFWYYWGQGTQVTVSS | high polyreactivity
40 | QVHLVESGGGLVQAGGSLRLSCAASGLTFAWSAMGWYRPAPGKEREWVAAITSSGSRTYYADSVKGRFTISRDNAKNTVYLQMNSLKPEDTAVYYCAAPSRYRPTKGYPYYYWGQGTQVTVSS | high polyreactivity
41 | QVQLVESGGGLVQAGGSLRLSCAASGSTFQSNGMGWYRQAPGKERELVAAITSTDASTSYADSVKGRFTISRDNAKNTVYLQMNSLKPEDTAVYYCAADFPVASGAELDYWGQGTQVTVSS | low polyreactivity
42 | QVQIVESGGGLVQAGGSLRLSCAASGSTFTRYAMGWYRQAPGKERELVAAISRTGGSRTYYADSVNGRFTISRDNAKNTVYLQMNCLKPEDTAVYYCAKGYWRYLGFLYFFPARDYWGQGTQVTVSS | high polyreactivity
43 | QVHLVESGGGLVQAGGSLRLSCAASGYIFRWYAMGWYRQAPGKEREFVASISKRGGSTYYADSVKGRFTISRDNAKNTVYLQMNSLKPEDTAVYYCARTPSPLLYSYDYWGQGTQVTVSS | high polyreactivity
